Positions count from the first letter of the chain named. Numbers in names are those of the source.
T1: human PAC1 receptor extracellular domain (ECD) (human, UniProt P41586 24-153)
T1 construct: also called PAC1 receptor ECD; PAC1 ECD
T1 sequence: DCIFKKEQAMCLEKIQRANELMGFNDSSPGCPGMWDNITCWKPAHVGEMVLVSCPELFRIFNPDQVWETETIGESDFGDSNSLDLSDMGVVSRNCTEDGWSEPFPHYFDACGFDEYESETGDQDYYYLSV

B1: anti-CGRP receptor variant 06, yeast-displayed Fab (Fab, V domains shown)
VH: QVQLVESGGGVVQPGRSLRLSCAASGFTFSSFGMHWVRQAPGKGLEWVAVISFDGSIKYSVDSVKGRFTISRDNSKNTLFLQMNSLRAEDTAVYYCARDRLNYYESSGYYHYKYYGMAVWGQGTTVTVSS
VL: QSVLTQPPSVSAAPGQKVTISCSGSYSNIGRKSVSWYQQLPGTAPKLLIYDNNKRPSGIPDRFSGSKSGTSATLGITGLQTGDEADYYCGTWDSRLSAVVFGGGTKLTVLG
notes: also called Variant Ab ID 06
B2: anti-CGRP receptor variant 11, yeast-displayed Fab (Fab, V domains shown)
VH: QVQLVESGGGVVQPGRSLRLSCAASGFWFDTFGMHWVRQAPGKGLEWVAVISFAGEDTHYVDSVKGRFTISRDNSKNTLFLQMNSLRAEDTAVYYCARDRLNYYESYGYYGYHYYGMAVWGQGTTVTVSS
VL: B1 VL with Y26R, K32Y, D51E, N53M, K54F, S57R, S94Y, L96M, S97Q
notes: also called Variant Ab ID 11
B3: anti-CGRP receptor variant 13, yeast-displayed Fab (Fab, V domains shown)
VH: B1 VH
VL: B1 VL with Y26R, K32R, S33T
notes: also called Variant Ab ID 13
B4: anti-CGRP receptor variant 08, yeast-displayed Fab (Fab, V domains shown)
VH: B1 VH
VL: B1 VL with R31W, K32W, S33P
notes: also called Variant Ab ID 08
B5: anti-CGRP receptor variant 04, yeast-displayed Fab (Fab, V domains shown)
VH: B1 VH with E105R, S107F, H111G, K113H
VL: B1 VL with Y26S, R31N, K32N, S33Y
notes: also called Variant Ab ID 04
B6: anti-CGRP receptor variant 10, yeast-displayed Fab (Fab, V domains shown)
VH: B1 VH with T28F, S30G, F32Y, D54A, S56E, K58E, Y59H, S60Y
VL: B1 VL with Y26S, R31N, K32N, S33Y
notes: also called Variant Ab ID 10
B7: anti-CGRP receptor variant 07, yeast-displayed Fab (Fab, V domains shown)
VH: B1 VH with T28Y, S30M, S31T, F32Y
VL: B1 VL with Y26S, R31N, K32N, S33Y
notes: also called Variant Ab ID 07
B8: anti-CGRP receptor variant 15, yeast-displayed Fab (Fab, V domains shown)
VH: B1 VH
VL: B1 VL with Y26S, R31N, K32N, S33Y, S94W, R95W, L96R, S97K, V100I
notes: also called Variant Ab ID 15
B9: anti-CGRP receptor variant 02, yeast-displayed Fab (Fab, V domains shown)
VH: B1 VH
VL: B1 VL with Y26R, R31I, S33A
notes: also called Variant Ab ID 02
B10: anti-CGRP receptor variant 09, yeast-displayed Fab (Fab, V domains shown)
VH: B1 VH with D54A, S56E, K58D, S60Y
VL: B1 VL with Y26S, R31N, K32N, S33Y
notes: also called Variant Ab ID 09
B11: anti-CGRP receptor variant 01, yeast-displayed Fab (Fab, V domains shown)
VH: B1 VH
VL: B1 VL with K32Y
notes: also called Variant Ab ID 01
B12: anti-CGRP receptor variant 14, yeast-displayed Fab (Fab, V domains shown)
VH: B1 VH
VL: B1 VL with Y26S, R31N, K32N, S33Y, R95W, L96H, S97R, A98V, V100T
notes: also called Variant Ab ID 14
B13: wild-type 4E4 anti-CGRP receptor monoclonal antibody (antibody, human IgG2, lambda, V domains shown)
VH: B1 VH with E105D
VL: B1 VL with Y26S, R31N, K32N, S33Y, A72T
notes: also called WT; 4E4 Ab
B14: 4E4 heavy chain D54A single-point alanine variant antibody (antibody, V domains shown)
VH: B1 VH with D54A, E105D
VL: B1 VL with Y26S, R31N, K32N, S33Y, A72T
notes: Recombinantly expressed as a monoclonal antibody
B15: 4E4 heavy chain K113A single-point alanine variant antibody (antibody, V domains shown)
VH: B1 VH with E105D, K113A
VL: B1 VL with Y26S, R31N, K32N, S33Y, A72T
notes: as for B14

molecular target: T2, human CGRP receptor extracellular domain (ECD) (human, UniProt Q16602 23-138; O60894 27-117); test: yeast-displayed Fab, FACS, 10 nM human CGRP receptor ECD
T2 construct: also called CGRP receptor ECD; human CGRP receptor ECD
T2 sequence (Q16602 23-138 limits assumed, chain 1 of 2): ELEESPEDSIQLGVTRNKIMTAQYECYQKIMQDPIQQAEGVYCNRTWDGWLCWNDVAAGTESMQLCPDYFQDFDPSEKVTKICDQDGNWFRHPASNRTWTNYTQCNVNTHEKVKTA
T2 sequence (O60894 27-117 limits assumed, chain 2 of 2): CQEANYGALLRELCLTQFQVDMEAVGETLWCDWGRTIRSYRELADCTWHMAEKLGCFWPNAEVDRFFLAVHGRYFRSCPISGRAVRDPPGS

Binder	Mutant vs. 4E4.2 Parent B/D Ratio	Normalized Binding Signal/Display Signal (B/D)
B1	7.4 fold	1.13 ratio
B2	22 fold	3.38 ratio
B3	9.8 fold	1.51 ratio
B4	3.1 fold	0.48 ratio
B5	3.4 fold	0.53 ratio
B6	13.3 fold	2.04 ratio
B7	5.3 fold	0.81 ratio
B8	2.7 fold	0.42 ratio
B9	3.8 fold	0.58 ratio
B10	10.6 fold	1.62 ratio
B11	5.8 fold	0.89 ratio
B12	2.2 fold	0.33 ratio

molecular target: T1, human PAC1 receptor extracellular …; test: yeast-displayed Fab, FACS, 10 nM PAC1 receptor ECD

Binder	Mutant vs. 4E4.2 Parent B/D Ratio	Normalized Binding Signal/Display Signal (B/D)
B1	1 fold	0.1 ratio
B2	1.5 fold	0.16 ratio
B3	1 fold	0.11 ratio
B4	1 fold	0.1 ratio
B5	1.1 fold	0.12 ratio
B6	0.9 fold	0.1 ratio
B7	1.2 fold	0.13 ratio
B8	0.9 fold	0.1 ratio
B9	0.9 fold	0.1 ratio
B10	1.6 fold	0.17 ratio
B11	0.8 fold	0.09 ratio
B12	0.7 fold	0.08 ratio

molecular target: T3, human CGRP receptor (human CRLR / human RAMP1 heterodimer) (human, UniProt Q16602 23-461; O60894 27-148); test: yeast-displayed Fab, FACS, detergent-solubilized lysate of human CGRP receptor-expressing cells vs blank cells
T3 construct: Full-length receptor: endogenous on SK-N-MC (HTB-10) cells in the cAMP assay; also called hCGRP receptor on SK-N-MC (HTB-10) cells; Human CGRP Receptor/AMID detergent-solubilized cell lysate
T3 sequence (Q16602 23-461 limits assumed, chain 1 of 2): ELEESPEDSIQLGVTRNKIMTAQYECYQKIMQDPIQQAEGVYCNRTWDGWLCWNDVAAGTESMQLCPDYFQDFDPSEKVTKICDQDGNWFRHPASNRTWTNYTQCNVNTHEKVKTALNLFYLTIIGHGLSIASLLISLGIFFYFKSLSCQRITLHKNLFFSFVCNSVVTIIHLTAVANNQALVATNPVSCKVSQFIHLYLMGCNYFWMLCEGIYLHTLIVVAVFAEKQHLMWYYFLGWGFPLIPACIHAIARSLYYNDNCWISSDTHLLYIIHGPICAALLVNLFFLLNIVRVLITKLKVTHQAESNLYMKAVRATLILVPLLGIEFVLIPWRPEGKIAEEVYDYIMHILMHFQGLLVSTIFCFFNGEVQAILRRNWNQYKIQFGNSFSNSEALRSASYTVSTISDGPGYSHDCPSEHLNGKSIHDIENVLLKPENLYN
T3 sequence (O60894 27-148 limits assumed, chain 2 of 2): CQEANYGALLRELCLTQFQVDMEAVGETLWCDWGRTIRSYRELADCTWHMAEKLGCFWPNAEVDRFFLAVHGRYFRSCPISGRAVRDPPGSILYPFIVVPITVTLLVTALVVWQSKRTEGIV

Binder	Human CGRP Receptor/Blank Cells Specific Binding	Mutant vs. 4E4.2 Parent Specific Binding Ratio
B1	17.5 ratio	2.2 fold
B2	9.5 ratio	1.2 fold
B3	14.6 ratio	1.8 fold
B4	18 ratio	2.3 fold
B5	9.5 ratio	1.2 fold
B6	20.7 ratio	2.6 fold
B7	11.7 ratio	1.5 fold
B8	11.9 ratio	1.5 fold
B9	14.2 ratio	1.8 fold
B10	10.4 ratio	1.3 fold
B11	25.8 ratio	3.2 fold
B12	13.5 ratio	1.7 fold

molecular target: T2, human CGRP receptor extracellular …; test: yeast-displayed Fab, FACS, 1 nM human CGRP receptor ECD

Binder	Mutant vs. 4E4.2 Parent B/D Ratio	Normalized Binding Signal/Display Signal (B/D)
B1	2.2 fold	0.27 ratio
B2	11 fold	1.36 ratio
B3	2.9 fold	0.35 ratio
B4	1.4 fold	0.17 ratio
B5	1.6 fold	0.2 ratio
B6	3.3 fold	0.4 ratio
B7	1.8 fold	0.22 ratio
B8	1.3 fold	0.16 ratio
B9	1.4 fold	0.17 ratio
B10	3 fold	0.38 ratio
B11	1.7 fold	0.21 ratio
B12	1 fold	0.12 ratio

molecular target: T4, soluble CGRP receptor (extracellular domains of human CRLR and human RAMP1) (human, UniProt Q16602 23-133; O60894 26-117); test: SPR (Biacore T200), antibody captured by goat anti-human Fc, soluble CGRP receptor as analyte, 1:1 model
T4 construct: the tag and the thrombin site are not described; also called soluble human CGRP receptor; CGRP receptor ECD
T4 sequence (Q16602 23-133, chain 1 of 2): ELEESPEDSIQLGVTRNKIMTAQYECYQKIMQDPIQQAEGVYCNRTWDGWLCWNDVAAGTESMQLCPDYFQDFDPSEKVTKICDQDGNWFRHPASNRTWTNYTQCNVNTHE
T4 sequence (O60894 26-117, chain 2 of 2): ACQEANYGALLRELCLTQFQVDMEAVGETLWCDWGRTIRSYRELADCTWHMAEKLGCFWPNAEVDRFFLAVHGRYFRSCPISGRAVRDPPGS

Binder	Kd	koff	kon
B13	28 nM	0.00054 s⁻¹	20000 M⁻¹ s⁻¹
B14	180 nM	0.0026 s⁻¹	15000 M⁻¹ s⁻¹
B15	33 nM	0.0006 s⁻¹	18000 M⁻¹ s⁻¹

molecular target: T5, cynomolgus monkey CGRP receptor (cynomolgus monkey, UniProt A0A2K5VQ71 34-472); test: yeast-displayed Fab, FACS, detergent-solubilized lysate of cynomolgus CGRP receptor/HEK cells vs blank cells
T5 construct: whole, on cells; Presented as detergent-solubilized lysate of HEK cells expressing the cynomolgus receptor; also called Cyno CGRP Receptor; Cynomolgus Monkey CGRP Receptor/HEK detergent-solubilized cell lysate
T5 sequence (A0A2K5VQ71 entry or part of it): as the sequence (Q16602 23-461 limits assumed, chain 1 of 2) above, with D55N, L431V counted along it

Binder	Cyno CGRP Receptor/Blank Cells Specific Binding	Mutant vs. 4E4.2 Parent Specific Binding Ratio
B1	4.8 ratio	2.5 fold
B2	5.3 ratio	2.8 fold
B3	4.8 ratio	2.5 fold
B4	4.9 ratio	2.5 fold
B5	3.1 ratio	1.6 fold
B6	3 ratio	1.6 fold
B7	3.1 ratio	1.6 fold
B8	4.2 ratio	2.2 fold
B9	5.3 ratio	2.8 fold
B10	2.3 ratio	1.2 fold
B11	4.6 ratio	2.4 fold
B12	2.2 ratio	1.1 fold

Source: US20220363770A1 (Amgen, published 2022)
